# Starred links: 1 amine or outer side, 2 acyl side, 3 side chain; linkers in the order of their positions; H or OH if unused. Positions of bridges follow the written chain, without caps; N, C: chain ends. Non-standard residues stand in square brackets, D forms with d. Primed or numbered codes have the meaning given here. PyrS2″ = (S)-3-amino-1-((pent-4-en-1-yloxy)carbonyl)pyrrolidine-3-carboxylic acid (stapling residue), C=CCCCOC(=O)N1CC[C@@](N[*:1])(C(=O)[*:2])C1; B5(4) = 2,2-bis(4-pentenyl)glycine = 2-amino-2-(pent-4-en-1-yl)hept-6-enoic acid (stitching residue), C=CCCCC(CCCC=C)(N[*:1])C(=O)[*:2]; PyrS2 = (S)-3-amino-1-((pent-4-en-1-yloxy)carbonyl)pyrrolidine-3-carboxylic acid, C=CCCCOC(=O)N1CC[C@@](N[*:1])(C(=O)[*:2])C1; MorphAsn = (S)-2-amino-4-morpholino-4-oxobutanoic acid, O=C(C[C@H](N[*:1])C(=O)[*:2])N1CCOCC1; B5(3) = 2,2-bis(4-pentenyl)glycine (stitching residue), C=CCCCC(CCCC=C)(N[*:1])C(=O)[*:2]; B5 = 2-amino-2-(pent-4-en-1-yl)hept-6-enoic acid, C=CCCCC(CCCC=C)(N[*:1])C(=O)[*:2]; Me2Asn = listed as N4-methyl-L-asparagine, CNC(=O)C[C@H](N[*:1])C(=O)[*:2]; MeAsn = N4-methyl-L-asparagine, CNC(=O)C[C@H](N[*:1])C(=O)[*:2]; MeGln = N5-methyl-L-glutamine, CNC(=O)CC[C@H](N[*:1])C(=O)[*:2]; Phe(3-COOH) = N[C@@H](Cc1cccc(C(=O)O)c1)C(=O)O; 2F3MeF = Cc1cccc(C[C@H](N[*:1])C(=O)[*:2])c1F; Phe(2-CF3) = N[C@@H](Cc1ccccc1C(F)(F)F)C(=O)O; Phe(4-Cl) = N[C@@H](Cc1ccc(Cl)cc1)C(=O)O; Bta = N[C@@H](Cc1csc2ccccc12)C(=O)O; αAllylPro = C=CC[C@@]1(C(=O)O)CCCN1; tBuAla = CC(C)(C)C[C@H](N)C(=O)O; 3Thi = N[C@@H](Cc1ccsc1)C(=O)O; Cha = N[C@@H](CC1CCCCC1)C(=O)O; 4ClBztA = not defined here; Ac5c = NC1(C(=O)O)CCCC1; Ac3c = NC1(C(=O)O)CC1; Aib = CC(C)(N)C(=O)O
# T1: B-cat-Halo (UniProt P35222 1-781)
# T1 sequence (looked up): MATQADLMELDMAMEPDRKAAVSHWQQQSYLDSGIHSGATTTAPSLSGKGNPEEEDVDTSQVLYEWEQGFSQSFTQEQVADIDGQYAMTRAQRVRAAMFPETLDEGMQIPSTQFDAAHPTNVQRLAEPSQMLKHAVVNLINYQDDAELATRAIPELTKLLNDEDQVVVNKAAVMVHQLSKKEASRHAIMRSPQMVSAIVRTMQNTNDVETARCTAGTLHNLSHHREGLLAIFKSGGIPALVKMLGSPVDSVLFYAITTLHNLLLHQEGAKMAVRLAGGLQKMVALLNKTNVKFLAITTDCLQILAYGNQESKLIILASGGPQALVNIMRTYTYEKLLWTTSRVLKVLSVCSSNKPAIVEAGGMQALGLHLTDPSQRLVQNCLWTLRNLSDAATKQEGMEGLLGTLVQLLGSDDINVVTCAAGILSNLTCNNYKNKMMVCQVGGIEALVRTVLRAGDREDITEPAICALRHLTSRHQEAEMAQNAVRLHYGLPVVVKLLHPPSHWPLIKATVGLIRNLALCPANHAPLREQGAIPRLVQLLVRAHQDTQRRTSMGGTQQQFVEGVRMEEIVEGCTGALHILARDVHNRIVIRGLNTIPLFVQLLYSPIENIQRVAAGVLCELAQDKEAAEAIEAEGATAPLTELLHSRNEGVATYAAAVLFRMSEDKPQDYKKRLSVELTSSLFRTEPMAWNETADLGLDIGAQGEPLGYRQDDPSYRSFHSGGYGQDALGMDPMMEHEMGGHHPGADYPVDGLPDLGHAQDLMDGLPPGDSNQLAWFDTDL
# T2: B-cat-Halo (beta-catenin HaloTag fusion expressed in HEK293 cells) (UniProt P35222 1-781)
# T2 sequence (looked up): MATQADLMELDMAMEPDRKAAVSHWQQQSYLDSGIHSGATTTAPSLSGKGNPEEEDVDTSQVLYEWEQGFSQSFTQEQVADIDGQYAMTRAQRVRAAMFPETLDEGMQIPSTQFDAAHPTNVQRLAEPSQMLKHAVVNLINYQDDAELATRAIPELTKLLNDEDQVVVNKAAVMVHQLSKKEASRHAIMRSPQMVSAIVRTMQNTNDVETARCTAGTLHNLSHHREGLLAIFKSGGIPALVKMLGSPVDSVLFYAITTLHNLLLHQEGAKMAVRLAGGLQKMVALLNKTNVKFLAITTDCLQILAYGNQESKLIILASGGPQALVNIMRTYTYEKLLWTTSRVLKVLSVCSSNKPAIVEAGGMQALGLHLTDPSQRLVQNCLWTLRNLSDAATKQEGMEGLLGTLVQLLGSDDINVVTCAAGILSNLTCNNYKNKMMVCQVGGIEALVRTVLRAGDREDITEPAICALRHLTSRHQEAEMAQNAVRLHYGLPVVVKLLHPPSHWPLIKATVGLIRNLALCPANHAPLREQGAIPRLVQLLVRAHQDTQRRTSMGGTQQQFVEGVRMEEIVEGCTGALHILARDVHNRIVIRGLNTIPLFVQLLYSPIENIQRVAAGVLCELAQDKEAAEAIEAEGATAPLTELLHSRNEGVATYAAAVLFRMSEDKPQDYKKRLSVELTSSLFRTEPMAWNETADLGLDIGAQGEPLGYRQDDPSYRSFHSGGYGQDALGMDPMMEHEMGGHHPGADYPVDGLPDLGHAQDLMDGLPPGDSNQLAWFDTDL
# Target: T1, B-cat-Halo
# Experiment: cell-based or functional assay
row,Binder,NanoBRET Abs IC50
1,"Ac-[αAllylPro]D[tBuAla][B5(3)]D[Phe(3-COOH)]QAFL[PyrS2″][2F3MeF][Phe(4-Cl)]A-NH2 (staple 1-4, 4-11) [I-2223]",9 µM

# Target: T2, B-cat-Halo (beta-catenin HaloTag fusion …)
# Experiment: cell-based or functional assay
row,Binder,NanoBRET Abs IC50
1,"Ac-[αAllylPro]D[tBuAla][B5(4)]D[Phe(3-COOH)]QAFL[PyrS2″][Phe(2-CF3)][7ClBztA]A-NH2 (staple 1-4, 4-11) [I-2487]",4.2 µM
2,"Ac-[αAllylPro]D[tBuAla][B5(4)]NT[Ac3c]AFN[PyrS2″][3Thi][Bta]Q-NH2 (staple 1-4, 4-11) [I-2492]",> 20 µM
3,"Ac-[αAllylPro]D[tBuAla][B5(4)]D[Phe(3-COOH)]QAFL[PyrS2″][Phe(2-CF3)][4ClBztA]A-NH2 (staple 1-4, 4-11; reading uncertain) [I-2491]",6.1 µM
4,"Ac-[αAllylPro]D[tBuAla][B5]NT[Aib]AFN[PyrS2][3Thi][Bta][MeAsn]-NH2 (staple 1-4, 4-11) [I-2495]",> 20 µM
5,"Ac-[αAllylPro]D[tBuAla][B5(4)]D[Phe(3-COOH)]AAFL[PyrS2″][Phe(2-CF3)][4ClBztA]Q-NH2 (staple 1-4, 4-11; reading uncertain) [I-2490]",6.4 µM
6,"Ac-[αAllylPro]D[tBuAla][B5(4)]D[Phe(3-COOH)]QAFL[PyrS2″][Phe(2-CF3)][7FBztA]A-NH2 (staple 1-4, 4-11) [I-2489]",7.4 µM
7,"Ac-[αAllylPro]D[tBuAla][B5(4)]D[Phe(3-COOH)]AAFL[PyrS2″][Phe(2-CF3)][7FBztA]Q-NH2 (staple 1-4, 4-11) [I-2488]",3.6 µM
8,"Ac-[αAllylPro]D[tBuAla][B5]NT[Aib]AF[Me2Asn][PyrS2][3Thi][Bta]N-NH2 (staple 1-4, 4-11) [I-2496]",> 20 µM
9,"Ac-[αAllylPro]D[tBuAla][B5(4)]NT[Ac5c]AFN[PyrS2″][3Thi][Bta]Q-NH2 (staple 1-4, 4-11) [I-2493]",> 20 µM
10,"Ac-[αAllylPro]D[tBuAla][B5]NT[Aib]AFN[PyrS2][3Thi][Bta][Me2Asn]-NH2 (staple 1-4, 4-11) [I-2494]",> 20 µM
11,"Ac-[αAllylPro]N[Cha][B5]DQ[MeGln]AFL[PyrS2]F[Bta][MorphAsn]-NH2 (staple 1-4, 4-11) [I-2502]",> 20 µM
12,"Ac-[αAllylPro]D[tBuAla][B5(4)]D[Phe(3-COOH)]AAFL[PyrS2″][Phe(2-CF3)][7ClBztA]Q-NH2 (staple 1-4, 4-11) [I-2486]",3.7 µM
13,"Ac-[αAllylPro]N[Cha][B5]DQQAFL[PyrS2]F[Bta][MorphAsn]-NH2 (staple 1-4, 4-11) [I-2504]",> 20 µM
14,"Ac-[αAllylPro]D[tBuAla][B5]NT[Aib]AF[MeAsn][PyrS2][3Thi][Bta]N-NH2 (staple 1-4, 4-11) [I-2497]",> 20 µM
15,"Ac-[αAllylPro]N[Cha][B5]DQ[Me2Gln]AFL[PyrS2]F[Bta][MorphAsn]-NH2 (staple 1-4, 4-11) [I-2501]",> 20 µM
